# Laboratory results taken from IntAct's records for PubMed 15141091.
# B1: Homeobox protein SIX1 (Mus musculus), Q62231 (parent)
# chain: MSMLPSFGFTQEQVACVCEVLQQGGNLERLGRFLWSLPACDHLHKNESVLKAKAVVAFHRGNFRELYKILESHQFSPHNHPKLQQLWLKAHYVEAEKLRGRPLGAVGKYRVRRKFPLPRTIWDGEETSYCFKEKSRGVLREWYAHNPYPSPREKRELAEATGLTTTQVSNWFKNRRQRDRAAEAKERENTENNNSSSNKQNQLSPLEGGKPLMSSSEEEFSPPQSPDQNSVLLLQSNMGHARSSNYSLPGLTASQPSHGLQAHQHQLQDSLLGPLTSSLVDLGS
# partner: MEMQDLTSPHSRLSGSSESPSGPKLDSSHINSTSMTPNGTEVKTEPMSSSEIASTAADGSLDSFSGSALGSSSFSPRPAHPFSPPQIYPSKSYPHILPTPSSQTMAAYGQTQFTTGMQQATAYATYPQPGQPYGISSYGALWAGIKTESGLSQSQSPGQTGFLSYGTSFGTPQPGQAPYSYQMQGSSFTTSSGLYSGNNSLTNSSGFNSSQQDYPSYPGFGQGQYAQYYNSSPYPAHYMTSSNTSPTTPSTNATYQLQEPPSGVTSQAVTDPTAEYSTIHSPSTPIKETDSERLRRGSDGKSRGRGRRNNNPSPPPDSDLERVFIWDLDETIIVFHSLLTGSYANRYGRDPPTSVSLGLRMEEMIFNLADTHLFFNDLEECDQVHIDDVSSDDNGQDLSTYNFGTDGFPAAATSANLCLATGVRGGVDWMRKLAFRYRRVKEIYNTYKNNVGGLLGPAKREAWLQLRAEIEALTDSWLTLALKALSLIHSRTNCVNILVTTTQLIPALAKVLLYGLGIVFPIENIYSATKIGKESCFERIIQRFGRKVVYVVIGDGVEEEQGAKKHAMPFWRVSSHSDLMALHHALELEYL
# Variants of: B1
# Conditions: with eya1_mouse Eya1, P97767
row,Variant,effect of a mutation on the interaction
1,MSMLPSFGFTQEQVACVCEVLQQGGNLERLGRFLWSLPACDHLHKNESVLKAKAVVAFHRGNFRELYKILESHQFSPHNHPKLQQLWLKAHYVEAEKLRGRPLGAVGKYRVRRKFPLPRTIWDGEETSCCFKEKSRGVLREWYAHNPYPSPREKRELAEATGLTTTQVSNWFKNRRQRDRAAEAKERENTENNNSSSNKQNQLSPLEGGKPLMSSSEEEFSPPQSPDQNSVLLLQSNMGHARSSNYSLPGLTASQPSHGLQAHQHQLQDSLLGPLTSSLVDLGS [Y129C],decreasing interaction
2,MSMLPSFGFTQEQVACVCEVLQQGGNLERLGRFLWSLPACDHLHKNESVLKAKAVVAFHRGNFRELYKILESHQFSPHNHPKLQQLWLKAHYVEAEKLRGRPLGAVGKYWVRRKFPLPRTIWDGEETSYCFKEKSRGVLREWYAHNPYPSPREKRELAEATGLTTTQVSNWFKNRRQRDRAAEAKERENTENNNSSSNKQNQLSPLEGGKPLMSSSEEEFSPPQSPDQNSVLLLQSNMGHARSSNYSLPGLTASQPSHGLQAHQHQLQDSLLGPLTSSLVDLGS [R110W],decreasing interaction
